Test results: patent CN115232208A (SHANGHAI JUNSHI BIOSCIENCES CO LTD; JUNMENG BIOSCIENCES CO …, dated 2022)

Experiments:
[1] = molecular target: T1, 重组人BLyS蛋白 (recombinant human BLyS protein) (human, UniProt Q9Y275 134-285); assay: Blocking ELISA, human BLyS coated, competition with human BR3
T1 construct: Recombinant human BLyS coated on hydrophobic ELISA plates; also called B淋巴细胞刺激因子; BAFF

[2] = molecular target: 人可溶性BLyS (human soluble BLyS) (human, UniProt Q9Y275 134-285); assay: cell-based or functional assay

IC50 [1] [µg/mL]	IC50 of inhibition of the NF-κB signal downstream of human BLyS binding TACI (luciferase reporter gene assay) [2] [ng/mL]	Binder
1.24	37.6	H482L472 (antibody, human IgG1, kappa, V domains shown, also called UBP1213sc (its formulation); UBP1213) VH: EVQLVESGGGLVQPGGSLRLSCAASGFTFSDAWMDWVRQAPGKGLEWVGEIRNKANNHATYQAESVKGRFTISRDDSKNSVYLQMNSLKTEDTAVYYCTRAPFDLLVRRGYYIMDYWGQGTLVTVSS VL: DIQMTQSPSSLSASVGDRVTITCRTSQDISIYLNWYQQKPGKAPKLLIYYTSRLRSGVPSRFSGSGSGTDFTLTISSLQPEDFATYFCQQGSTLPWTFGGGTKLEIKR
0.858	29.3	H483L473 (antibody, human IgG1, kappa, V domains shown) VH: EVQLVESGGGLVKPGGSLRLSCAASGFTFSDAWMDWVRQAPGKGLEWVGEIRNKANNHATYQAESVKGRFTISRDDSKSTVYLQMNSLKTEDTAVYYCTRAPFDLLVRRGYYIMDYWGQGTLVTVSS VL: DIQMTQSPSSLSASVGDRVTITCRTSQDISIYLNWYQQKPGKAPKLLIYYTSRLRSGVPSRFSGSGSGTDFTFTISSLQPEDIATYFCQQGSTLPWTFGGGTKLEIKR
1.27	31.5	H484L474 (antibody, human IgG1, kappa, V domains shown) VH: EVQLVESGGGLVQPGGSLRLSCAASGFTFSDAWMDWVRQAPGKGLEWVAEIRNKANNHATYQAESVKGRFTISRDDSKSSVYLQMNSLRAEDTAVYYCTRAPFDLLVRRGYYIMDYWGQGTLVTVSS VL: DIQMTQSPSSVSASVGDRVTITCRTSQDISIYLNWYQQKPGKAPKLLIYYTSRLRSGVPSRFSGSGSGTDFTLTISSLQPEDFATYFCQQGSTLPWTFGGGTKLEIKR
